Measured values taken from the supplement of paper PMC10899765.

Assays:
Conditions in all cases: 20 nM; 72 h
MCF10A [1] = assay: percent viability (nuclei count relative to siNT); higher = more viable cells
Description: (§1)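 After 72 h, cells were fixed and stained with Hoechst and anti-fibrillarin, and nucleoli per nucleus were counted with CellProfiler. Values are plate-adjusted percent effect for the one-nucleolus and 5+ nucleoli phenotypes, normalised to siNT (0%) and to the positive controls siNOL11 or siKIF11 (100%), as the mean of biological triplicates. Percent viability is the nuclei count relative to siNT.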

MCF10A [2] = assay: 5+ nucleoli phenotype percent effect (relative to siNT 0% and siKIF11 100%); higher = more cells with five or more nucleoli
Description: as §1

MCF10A [3] = assay: one-nucleolus phenotype percent effect (relative to siNT 0% and siNOL11 100%); higher = more cells with one nucleolus (ribosome biogenesis inhibition)
Description: as §1

Sequence	percent viability (MCF10A [1]) [%]	5+ nucleoli phenotype percent effect (MCF10A [2]) [%]	one-nucleolus phenotype percent effect (MCF10A [3]) [%]
CCCCUGGGGCUGGGCAGGCGGA [hsa-miR-6791-5p]	107	45.9	-13.7
UCCCCUUCCUCCCUGCCCAG [hsa-miR-6756-3p]	51.9	16.4	-12.3
UUCCAGCCCUGGUAGGCGCCGCG [hsa-miR-6720-5p]	17.9	-23.2	45
CUGCCCUAGUCUAGCUGAAGCU [hsa-miR-3157-3p]	170	27.8	-21.2
CCUCUCCUCCCUGUGCCCCAG [hsa-miR-6845-3p]	60.1	26.2	-13.8
UCUGUGCCCCUACUUCCCAG [hsa-miR-6889-3p]	63	16.2	-15.5
UAGUAGACCGUAUAGCGUACG [hsa-miR-411-5p]	69.2	15.2	-6.18
ACUCCAGCCCCACAGCCUCAGC [hsa-miR-766-3p]	39	-19.8	15.5
UGGGGGUGUGGGGAGAGAGAG [hsa-miR-7110-5p]	40.9	-6.75	6.58
UGAGCCCCUGUGCCGCCCCCAG [hsa-miR-1225-3p]	98.1	19.9	-16.7
ACUGGGAAGAGGAGCUGAGGGA [hsa-miR-4646-5p]	35	-6.37	21.9
CAAAAACCGCAAUUACUUUUGCA [hsa-miR-548h-3p]	52	-11	-6.67
GUCAUACACGGCUCUCCUCUCU [hsa-miR-485-3p]	54.4	-1.94	-9.37
UGAUCAGGCAAAAUUGCAGACU [hsa-miR-4772-5p]	17	47.2	9.01
GAGAGGAACAUGGGCUCAGGACA [hsa-miR-6859-5p]	75.5	41.6	-24.3
GUAGGGGCGUCCCGGGCGCGCGGG [hsa-miR-6789-5p]	77.1	28.1	-25.6
UGGGGUGCCCACUCCGCAAGUU [hsa-miR-4664-5p]	9.8	-17.8	23.6
UUCUAGAUGAGAGAUAUAUAUA [hsa-miR-4777-5p]	34.7	-25.9	29.8
AGCAUGACAGAGGAGAGGUGG [hsa-miR-6076]	33.8	-17.6	7.38
UAGGGGCAGCAGAGGACCUGGG [hsa-miR-4688]	17.5	8.84	23.4

Sequence	percent viability (MCF10A [1]) [%]	5+ nucleoli phenotype percent effect (MCF10A [2]) [%]	one-nucleolus phenotype percent effect (MCF10A [3]) [%]
UUAUUGUCACGUUCUGAUU [hsa-miR-5701]	22.2	3.43	4.81
CCACCAGGUCUAGCAUUGGGAU [hsa-miR-4733-3p]	29.8	-9.32	12.6
AAGUUCUGUUAUACACUCAGGC [hsa-miR-148b-5p]	37.1	-28.2	11.3
UGCCCUCCUUUCUUCCCUC [hsa-miR-4290]	21.6	-8.55	-1.5
UGGGGAAGGCGUCAGUGUCGGG [hsa-miR-4725-3p]	28.1	-3	26
UCAGUGCACUACAGAACUUUGU [hsa-miR-148a-3p]	88.9	68.2	-16.7
AAGGGAAGAUGGUGACCAC [hsa-miR-9500]	26	-15.3	15.1
AGAGAUGCCGCCUUGCUCCUU [hsa-miR-4708-5p]	45.7	-25.3	21
AUUGACACUUCUGUGAGUAGA [hsa-miR-514a-3p]	56.9	-5.72	13.2
UCACAAGUCAGGCUCUUGGGAC [hsa-miR-125b-2-3p]	37.1	-44.2	59.8
UGGAGACGCGGCCCUGUUGGAGU [hsa-miR-139-3p]	68	-24.5	20.9
UGAGGUAGUAGGUUGUAUAGUU [hsa-let-7a-5p]	29.1	61.1	-24.4
CGGGGCCAGAGCAGAGAGC [hsa-miR-6845-5p]	53.6	11.6	9.59
AAUAAUAUCACAGUAGGUGU [hsa-miR-5692b]	155	46.7	-19.9
AAGGCCUUUCUGAACCUUCAGA [hsa-miR-3142]	23.2	-15	19.5
GUGAGGGCAUGCAGGCCUGGAUGGGG [hsa-miR-1226-5p]	114	53.3	-14.2
UGGGGGGACAGAUGGAGAGGACA [hsa-miR-6887-5p]	22.6	-8.17	22.8
UAGAUAAAAUAUUGGUACCUG [hsa-miR-577]	113	29.6	-23.7
UCGGGGAGUCUGGGGUCCGGAAU [hsa-miR-6889-5p]	30.7	3.52	6.17
UAUGGAAAGACUUUGCCACUCU [hsa-miR-3688-3p]	54	57.1	-10.8

Sequence	percent viability (MCF10A [1]) [%]	5+ nucleoli phenotype percent effect (MCF10A [2]) [%]	one-nucleolus phenotype percent effect (MCF10A [3]) [%]
GUGUGCGGAAAUGCUUCUGCUA [hsa-miR-147b]	70.3	33.7	-12.4
GCAGUUCUGAGCACAGUACAC [hsa-miR-4277]	210	31.2	-25
UCCCACUACUUCACUUGUGA [hsa-miR-4301]	45.1	60.9	-19.4
CUGCGCAAGCUACUGCCUUGCU [hsa-let-7i-3p]	110	0.0505	-4.21
AUUCUUCCUGCCCUGGCUCCAU [hsa-miR-6875-3p]	29.5	-0.842	-4.69
GGAUUCCUGGAAAUACUGUUCU [hsa-miR-145-3p]	55.6	-19.5	9.95
AAACUACUGAAAAUCAAAGAU [hsa-miR-606]	133	18.1	-12.6
UGAGGGACAGAUGCCAGAAGCA [hsa-miR-3126-5p]	16.2	-33.3	40
ACAGGGAGGAGAUUGUA [hsa-miR-4441]	18.5	-15.6	46.5
ACUAAAGGAUAUAGAAGGUUUU [hsa-miR-4509]	103	5.5	-25.3
UGGGAGGAGGGGAUCUUGGG [hsa-miR-7106-5p]	34.9	21.2	-7.27
AAAGACUCUGCAAGAUGCCU [hsa-miR-4432]	67.3	-6.99	-5.81
ACUGACAGGAGAGCAUUUUGA [hsa-miR-3660]	55	21.1	-1.95
AGAGAUUGGUAGAAAUCAGGU [hsa-miR-5186]	33.8	-25.3	28.7
UUCCCAGCCAACGCACCA [hsa-miR-7977]	63.8	20.4	-23.2
UGGUAGAGCUGAGGACA [hsa-miR-4451]	16.3	9.42	-7.47
UCACAACAACCUUGCAGGGUAGA [hsa-miR-5003-5p]	80.1	16.9	-10.6
CCGCUCUUCCCCUGACCCCAG [hsa-miR-6812-3p]	163	54.6	-35.5
ACUGGACUUGGAGUCAGAAGG [hsa-miR-378a-3p]	45.2	22.6	2.26
